Consider four sequences from the supplement of paper PMC5998384.

The test system of data set [1] is HeLa Kyoto. The data set can be described thus: solubility in G1/S (NP-40 vs SDS abundance) (log2 ratio); higher = more soluble. Particulars: cell cycle stage: G1/S.
Data set [2] has as its system HeLa Kyoto. In words: melting temperature (median over replicates), in situ; higher = more thermally stable.
Data set [3] concerns HeLa Kyoto. In words: solubility change mitosis vs G1/S (difference of NP-40 vs SDS log2 ratios) (log2 ratio difference); higher = more soluble in mitosis.
The test system of data set [4] is HeLa Kyoto. The data set can be described thus: thermal stability score vs G1/S (z-score of summed log2 fold changes over temperatures); higher = more thermally stable than in G1/S.
[5] abbreviates: cell cycle stage: early G1 (4.5 h after nocodazole release).
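Wherever melting temperature (median over replicates), in situ is given: HeLa Kyoto cells synchronized by double thymidine or nocodazole block, proteins quantified by TMT10plex mass spectrometry, three independent biological replicates.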
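Wherever solubility change mitosis vs G1/S (difference of NP-40 vs SDS log2 ratios) is given: synchronized HeLa Kyoto cells (double thymidine block for G1/S, nocodazole release for mitosis), protein amounts in NP-40 versus SDS lysates quantified by mass spectrometry, three biological replicates.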
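Wherever solubility in G1/S (NP-40 vs SDS abundance) is given: HeLa Kyoto cells arrested at G1/S by double thymidine block, proteins quantified by TMT10plex mass spectrometry in mild NP-40 versus SDS extracts, three biological replicates.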
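Wherever thermal stability score vs G1/S (z-score of summed log2 fold changes over temperatures) is given: synchronized HeLa Kyoto cells, proteins quantified by TMT10plex mass spectrometry, three biological replicates, mitosis taken 0.5 h after nocodazole release, G1/S directly after double thymidine block.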

Consider “MADKQISLPAKLINGGIAGLIGVTCVFPIDLAKTRLQNQQNGQRVYTSMSDCLIKTVRSEGYFGMYRGAAVNLTLVTPEKAIKLAANDFFRHQLSKDGQKLTLLKEMLAGCGAGTCQVIVTTPMEMLKIQLQDAGRIAAQRKILAAQGQLSAQGGAQPSVEAPAAPRPTATQLTRDLLRSRGIAGLYKGLGATLLRDVPFSVVYFPLFANLNQLGRPASEEKSPFYVSFLAGCVAGSAAAVAVNPCDVVKTRLQSLQRGVNEDTYSGILDCARKILRHEGPSAFLKGAYCRALVIAPLFGIAQVVYFLGIAESLLGLLQDPQA [SLC25A22]”, for which, in the data set on HeLa Kyoto [1], the “solubility in G1/S (log2)” value was 0.299. For the same sequence, the melting temperature is 56.1 °C in the data set with HeLa Kyoto [2] (cell cycle stage: G1/S) and 55.4 °C in the data set on HeLa Kyoto [2] (cell cycle stage: mitosis). The “solubility change mitosis (log2)” value in the data set with HeLa Kyoto [3] was -0.111. The thermal stability score was 0.207 in the data set with HeLa Kyoto [4] (setting [5]) and -1.95 in the data set with HeLa Kyoto [4] (cell cycle stage: mitosis).

With “MADKTPGGSQKASSKTRSSDVHSSGSSDAHMDASGPSDSDMPSRTRPKSPRKHNYRNESARESLCDSPHQNLSRPLLENKLKAFSIGKMSTAKRTLSKKEQEELKKKEDEKAAAEIYEEFLAAFEGSDGNKVKTFVRGGVVNAAKEEHETDEKRGKIYKPSSRFADQKNPPNQSSNERPPSLLVIETKKPPLKKGEKEKKKSNLELFKEELKQIQEERDERHKTKGRLSRFEPPQSDSDGQRRSMDAPSRRNRSSGVLDDYAPGSHDVGDPSTTNLYLGNINPQMNEEMLCQEFGRFGPLASVKIMWPRTDEERARERNCGFVAFMNRRDAERALKNLNGKMIMSFEMKLGWGKAVPIPPHPIYIPPSMMEHTLPPPPSGLPFNAQPRERLKNPNAPMLPPPKNKEDFEKTLSQAIVKVVIPTERNLLALIHRMIEFVVREGPMFEAMIMNREINNPMFRFLFENQTPAHVYYRWKLYSILQGDSPTKWRTEDFRMFKNGSFWRPPPLNPYLHGMSEEQETEAFVEEPSKKGALKEEQRDKLEEILRGLTPRKNDIGDAMVFCLNNAEAAEEIVDCITESLSILKTPLPKKIARLYLVSDVLYNSSAKVANASYYRKFFETKLCQIFSDLNATYRTIQGHLQSENFKQRVMTCFRAWEDWAIYPEPFLIKLQNIFLGLVNIIEEKETEDVPDDLDGAPIEEELDGAPLEDVDGIPIDATPIDDLDGVPIKSLDDDLDGVPLDATEDSKKNEPIFKVAPSKWEAVDESELEAQAVTTSKWELFDQHEESEEEENQNQEEESEDEEDTQSSKSEEHHLYSNPIKEEMTESKFSKYSEMSEEKRAKLREIELKVMKFQDELESGKRPKKPGQSFQEQVEHYRDKLLQREKEKELERERERDKKDKEKLESRSKDKKEKDECTPTRKERKRRHSTSPSPSRSSSGRRVKSPSPKSERSERSERSHKESSRSRSSHKDSPRDVSKKAKRSPSGSRTPKRSRRSRSRSPKKSGKKSRSQSRSPHRSHKKSKKNKH [U2SURP]”, in the data set with HeLa Kyoto [1], the “solubility in G1/S (log2)” value is -0.673. Besides, the melting temperature amounted to 47.9 °C with HeLa Kyoto [2] (cell cycle stage: G1/S) and 49.5 °C with HeLa Kyoto [2] (cell cycle stage: mitosis). Moreover, the “solubility change mitosis (log2)” value with HeLa Kyoto [3] stood at 0.526. For the same sequence, the thermal stability score was found to be 1.49 in the data set with HeLa Kyoto [4] (setting [5]) and 6.77 in the data set with HeLa Kyoto [4] (cell cycle stage: mitosis).

On to “MADNLPTEFDVVIIGTGLPESILAAACSRSGQRVLHIDSRSYYGGNWASFSFSGLLSWLKEYQQNNDIGEESTVVWQDLIHETEEAITLRKKDETIQHTEAFCYASQDMEDNVEEIGALQKNPSLGVSNTFTEVLDSALPEESQLSYFNSDEMPAKHTQKSDTEISLEVTDVEESVEKEKYCGDKTCMHTVSDKDGDKDESKSTVEDKADEPIRNRITYSQIVKEGRRFNIDLVSKLLYSQGLLIDLLIKSDVSRYVEFKNVTRILAFREGKVEQVPCSRADVFNSKELTMVEKRMLMKFLTFCLEYEQHPDEYQAFRQCSFSEYLKTKKLTPNLQHFVLHSIAMTSESSCTTIDGLNATKNFLQCLGRFGNTPFLFPLYGQGEIPQGFCRMCAVFGGIYCLRHKVQCFVVDKESGRCKAIIDHFGQRINAKYFIVEDSYLSEETCSNVQYKQISRAVLITDQSILKTDLDQQTSILIVPPAEPGACAVRVTELCSSTMTCMKDTYLVHLTCSSSKTAREDLESVVKKLFTPYTETEINEEELTKPRLLWALYFNMRDSSGISRSSYNGLPSNVYVCSGPDCGLGNEHAVKQAETLFQEIFPTEEFCPPPPNPEDIIFDGDDKQPEAPGTNNVVMAKLESSEESKNLESPEKHLQN [CHML]”, for which, in the data set on HeLa Kyoto [1], the “solubility in G1/S (log2)” value was -0.076. Further, the melting temperature in the data set on HeLa Kyoto [2] (cell cycle stage: G1/S) came to 54 °C; in the data set on HeLa Kyoto [2] (cell cycle stage: mitosis), 53.7 °C. In addition, the “solubility change mitosis (log2)” value in the data set on HeLa Kyoto [3] is -0.178. Besides, the thermal stability score in the data set with HeLa Kyoto [4] (setting [5]) was -0.83; in the data set with HeLa Kyoto [4] (cell cycle stage: mitosis), -1.67.

As to “MADPAAPTPAAPAPAQAPAPAPEAVPAPAAAPVPAPAPASDSASGPSSDSGPEAGSQRLLFSHDLVSGRYRGSVHFGLVRLIHGEDSDSEGEEEGRGSSGCSEAGGAGHEEGRASPLRRGYVRVQWYPEGVKQHVKETKLKLEDRSVVPRDVVRHMRSTDSQCGTVIDVNIDCAVKLIGTNCIIYPVNSKDLQHIWPFMYGDYIAYDCWLGKVYDLKNQIILKLSNGARCSMNTEDGAKLYDVCPHVSDSGLFFDDSYGFYPGQVLIGPAKIFSSVQWLSGVKPVLSTKSKFRVVVEEVQVVELKVTWITKSFCPGGTDSVSPPPSVITQENLGRVKRLGCFDHAQRQLGERCLYVFPAKVEPAKIAWECPEKNCAQGEGSMAKKVKRLLKKQVVRIMSCSPDTQCSRDHSMEDPDKKGESKTKSEAESASPEETPDGSASPVEMQDEGAEEPHEAGEQLPPFLLKEGRDDRLHSAEQDADDEAADDTDDTSSVTSSASSTTSSQSGSGTSRKKSIPLSIKNLKRKHKRKKNKITRDFKPGDRVAVEVVTTMTSADVMWQDGSVECNIRSNDLFPVHHLDNNEFCPGDFVVDKRVQSCPDPAVYGVVQSGDHIGRTCMVKWFKLRPSGDDVELIGEEEDVSVYDIADHPDFRFRTTDIVIRIGNTEDGAPHKEDEPSVGQVARVDVSSKVEVVWADNSKTIILPQHLYNIESEIEESDYDSVEGSTSGASSDEWEDDSDSWETDNGLVEDEHPKIEEPPIPPLEQPVAPEDKGVVISEEAATAAVQGAVAMAAPMAGLMEKAGKDGPPKSFRELKEAIKILESLKNMTVEQLLTGSPTSPTVEPEKPTREKKFLDDIKKLQENLKKTLDNVAIVEEEKMEAVPDVERKEDKPEGQSPVKAEWPSETPVLCQQCGGKPGVTFTSAKGEVFSVLEFAPSNHSFKKIEFQPPEAKKFFSTVRKEMALLATSLPEGIMVKTFEDRMDLFSALIKGPTRTPYEDGLYLFDIQLPNIYPAVPPHFCYLSQCSGRLNPNLYDNGKVCVSLLGTWIGKGTERWTSKSSLLQVLISIQGLILVNEPYYNEAGFDSDRGLQEGYENSRCYNEMALIRVVQSMTQLVRRPPEVFEQEIRQHFSTGGWRLVNRIESWLETHALLEKAQALPNGVPKASSSPEPPAVAELSDSGQQEPEDGGPAPGEASQGSDSEGGAQGLASASRDHTDQTSETAPDASVPPSVKPKKRRKSYRSFLPEKSGYPDIGFPLFPLSKGFIKSIRGVLTQFRAALLEAGMPECTEDK [UBE2O]”, in the data set on HeLa Kyoto [1], the “solubility in G1/S (log2)” value was -0.0555. The melting temperature in the data set with HeLa Kyoto [2] (cell cycle stage: G1/S) came to 51.7 °C; in the data set on HeLa Kyoto [2] (cell cycle stage: mitosis), 51.1 °C. Further, the “solubility change mitosis (log2)” value in the data set on HeLa Kyoto [3] is -0.0785. The thermal stability score in the data set with HeLa Kyoto [4] (setting [5]) was -1.41; in the data set on HeLa Kyoto [4] (cell cycle stage: mitosis), -1.46.
